Laboratory results: patent publication US20050084890A1, “High-throughput screening assay for inhibitors of replication protein A” (priority 2003, published 2005)

Legend:
RPA = target: T1, RPA (Homo sapiens, UniProt P27694); assay: Homogeneous high-throughput fluorescence assay of RPA's DNA binding activity (96-well); settings: blind experiment; 5, 25 or 50 pmol competitor in 3 of 96 wells
T1 construct: made in house; host or cells: Escherichia coli
Description: Specifically, the percentage inhibition is calculated by taking the difference between the fluorescence values of reactions containing DNA and RPA and reactions containing DNA, RPA, and the test compound and dividing by the difference between the fluorescence values of reactions with DNA and RPA and the fluorescence of the DNA alone. This value is then multiplied by 100 to give percentage inhibition. The measurement is typically reported as fluorescence above the background fluorescence of the reporter alone. In one aspect the of the assay the DNA is single stranded DNA.
In accordance with one exemplary embodiment of the present invention, a homogeneous high-throughput screening assay is provided that employs a novel fluorescent reporter for measuring RPA's DNA binding activity. […] The fluorescence is then quantified in a 96-well plate fluorescence spectrophotometer. […]
RPA (10 pmol) was added to each well of a 96-well plate in a volume of 100 μl. […] Plates were read in a fluorometer. Fluorescence emission was read at 518 nm following excitation at […]. Fluorescence was read using a 96-well plate reader with a 2.5 nm excitation slit width and a 5 nm emission slit width. […] The data is presented as fluorescence above the background fluorescence of the reporter alone unless indicated otherwise. […]

[1] = target: T2, Replication Protein A (RPA) (Homo sapiens, UniProt P27694;P15927;P35244 P27694:1-616,P15927:1-270,P35244:1-121); assay: fluorescence enhancement (ex 498 nm, em 518 nm); hyperbolic curve saturating at 1:1 RPA:DNA; settings: tags: expressed in E. coli from vector pdT11 (Marc Wold); label: 5' fluorescein
T2 sequence (P27694 whole entry, chain 1 of 3): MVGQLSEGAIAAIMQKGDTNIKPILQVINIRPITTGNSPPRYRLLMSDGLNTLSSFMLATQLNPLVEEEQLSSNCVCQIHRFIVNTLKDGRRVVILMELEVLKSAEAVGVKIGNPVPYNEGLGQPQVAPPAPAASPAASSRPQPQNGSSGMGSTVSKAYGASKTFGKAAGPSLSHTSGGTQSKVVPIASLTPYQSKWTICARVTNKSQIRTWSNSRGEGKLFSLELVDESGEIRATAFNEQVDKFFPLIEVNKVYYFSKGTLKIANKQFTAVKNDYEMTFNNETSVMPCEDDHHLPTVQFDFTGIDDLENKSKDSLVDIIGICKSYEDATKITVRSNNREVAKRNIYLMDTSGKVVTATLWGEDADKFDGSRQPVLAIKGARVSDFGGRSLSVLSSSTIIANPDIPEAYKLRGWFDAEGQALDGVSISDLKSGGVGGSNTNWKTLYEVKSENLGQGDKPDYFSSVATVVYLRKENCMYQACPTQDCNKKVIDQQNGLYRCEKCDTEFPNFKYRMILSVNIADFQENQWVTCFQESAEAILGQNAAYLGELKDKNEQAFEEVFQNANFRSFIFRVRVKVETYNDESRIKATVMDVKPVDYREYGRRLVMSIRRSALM
T2 sequence (P15927 whole entry, chain 2 of 3): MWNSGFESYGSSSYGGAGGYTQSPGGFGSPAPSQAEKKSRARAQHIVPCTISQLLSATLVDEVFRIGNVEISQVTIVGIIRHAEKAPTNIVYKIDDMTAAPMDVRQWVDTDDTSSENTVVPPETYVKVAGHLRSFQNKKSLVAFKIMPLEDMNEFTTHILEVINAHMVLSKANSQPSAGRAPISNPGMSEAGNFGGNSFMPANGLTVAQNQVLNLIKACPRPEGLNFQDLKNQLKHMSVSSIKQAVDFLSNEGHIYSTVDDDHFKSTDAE
T2 sequence (P35244 whole entry, chain 3 of 3): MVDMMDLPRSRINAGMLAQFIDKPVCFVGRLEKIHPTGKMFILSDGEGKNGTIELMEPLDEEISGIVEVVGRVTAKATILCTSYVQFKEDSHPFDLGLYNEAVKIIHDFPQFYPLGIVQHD
Description: In an effort to investigate the effect small molecules have on the interaction of RPA with DNA, an HTS assay was developed that relies on the use of a fluorescein-labeled ssDNA substrate. […] In an effort to optimize the detection, fluorescent excitation and emission wavelengths were tested along with varying slit widths and voltages. The optimal parameters were excitation at 498 nm and emission at […]. The optimal excitation and emission slit widths and voltage were 2.5 and 5 nm and 800 V, respectively.
In an attempt to test a large number of compounds simultaneously, the assay was converted to a 96-well plate format. In this assay, the fluorescein-labeled DNA was diluted into assay buffer and 100 μl were dispensed into each well. The fluorescence of each well was then read. Each well then received 100 μl RPA and the fluorescence of each well was read again. Percentage increase of fluorescence was then calculated from these two readings and is represented in FIG. 1.

[2] = target: T2, Replication Protein A (RPA); assay: competition; 5, 25 or 50 pmol unlabeled DNA inhibits RPA binding to the fluorescein-labeled reporter; settings: tags: expressed in E. coli from vector pdT11 (Marc Wold)
Description: RPA (10 pmol) was added to each well of a 96-well plate in a volume of 100 μl. Individual compounds were added to each well followed by the fluorescent reporter. The final reaction volume was 200 μl. Plates were read in a fluorometer. Fluorescence emission was read at 518 nm following excitation at […]. Fluorescence was read using a 96-well plate reader with a 2.5 nm excitation slit width and a 5 nm emission slit width. To calculate the percentage inhibition, the difference between the fluorescence values of reactions containing DNA and RPA and […] the test compound was divided by the difference between the fluorescence values of reactions with DNA and RPA and the fluorescence of the DNA alone. This value was then multiplied by 100 to give percentage inhibition. The data is presented as fluorescence above the background fluorescence of the reporter alone unless indicated otherwise.
To determine the effectiveness of this assay, a blind experiment was performed in which 3 of the 96 wells were added to 5, 25, or 50 pmol DNA substrate that has the exact sequence of the fluorescent DNA reporter without the fluorescein label. This DNA would compete for RPA, therefore acting as an inhibitor. […] The effect of DMSO on reaction sensitivity and reproducibility was assessed and the results indicated no difference in assay sensitivity.

[3] = target: T2, Replication Protein A (RPA); assay: FP; polarization r max 0.23 without compound; saturation at about 15 pmol RPA in control as printed; settings: tags: expressed in E. coli from vector pdT11 (Marc Wold); label: fluorescein
Description: To more precisely determine if the method of inhibition was via an interaction with DNA or RPA, fluorescence polarization experiments were conducted. Fluorescence polarization is a measure of the rate at which an object tumbles or rotates in three-dimensional space. In this experiment, a fluorescein-labeled dT₃₀ substrate DNA is employed which results in a baseline polarization that is increased upon RPA binding; to the DNA and slowing its rotation. Using this method, it can be determined if the interaction of the compound was with DNA or RPA by constructing binding isotherms varying RPA at a fixed concentration of DNA with and without the addition of specific compounds. Using fluorescence polarization, compounds that exert their inhibitory effect through an interaction with the DNA were capable of being identified. Fluorescence polarization was performed by titrating RPA into a reaction containing fluorescein-labeled dT₃₀ DNA in the presence and absence of 20 μM compound (FIG. 5). […] This conclusion is further supported by experiments performed measuring the effect of compound 1:51 on polarization of the DNA in the absence of RPA. In these reactions, the r value of the DNA plus compound was slightly greater than the r value of the DNA without compound.

T1 sequence (P27694 whole entry): as the sequence (P27694 whole entry, chain 1 of 3) above
T1 sequence (P15927 whole entry partner): as the sequence (P15927 whole entry, chain 2 of 3) above
T1 sequence (P35244 whole entry partner): as the sequence (P35244 whole entry, chain 3 of 3) above

With “DNA substrate that has the exact sequence of the fluorescent DNA reporter without the fluorescein label: unlabeled 30 base ssDNA of SEQ ID NO: 1 sequence, competes for RPA, acting as an inhibitor (DNA GGGGAAGTAAGGACGCGGAAAGGATAGGGG; DNA, backbone not given here; unlabeled competitor ssDNA)” the “inhibition of RPA binding to the fluorescein-labeled DNA” value (RPA) was “significant inhibition”.

GGGGAAGTAAGGACGCGGAAAGGATAGGGG (ssDNA) [30-base purine-rich reporter DNA]: binds [1].

GGGGAAGTAAGGACGCGGAAAGGATAGGGG (ssDNA) [30-base unlabeled competitor DNA]: binds [2].

TTTTTTTTTTTTTTTTTTTTTTTTTTTTTT (ssDNA, [NONE]) [dT30]: binds [3].
